Sequences and labels used below:
T1: human CCK-B receptor (human, UniProt P32239 1-447)
T1 sequence (looked up): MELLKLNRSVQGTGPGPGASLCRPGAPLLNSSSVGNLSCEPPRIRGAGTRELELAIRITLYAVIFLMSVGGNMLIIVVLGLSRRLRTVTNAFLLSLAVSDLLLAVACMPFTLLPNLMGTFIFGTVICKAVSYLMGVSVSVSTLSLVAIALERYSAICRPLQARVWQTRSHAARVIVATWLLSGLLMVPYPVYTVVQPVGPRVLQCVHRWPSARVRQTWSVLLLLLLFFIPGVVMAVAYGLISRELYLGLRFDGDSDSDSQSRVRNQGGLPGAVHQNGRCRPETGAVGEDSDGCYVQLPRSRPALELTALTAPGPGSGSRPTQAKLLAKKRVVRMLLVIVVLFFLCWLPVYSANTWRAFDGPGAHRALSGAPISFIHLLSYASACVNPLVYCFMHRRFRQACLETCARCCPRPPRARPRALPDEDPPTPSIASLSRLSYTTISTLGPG

Square brackets hold non-standard residues; d marks the D form. Ends that are not written are not given here. Orn = NCCC[C@H](N)C(=O)O

The first test addresses human GLP-1 receptor (human, UniProt P43220 24-463). Kind of test: cell-based or functional assay.
Turning to HGEGTFTSELSKYLEEEAVRLFIEFLK[Orn][Peg3]WLDF-NH2 [[Glu9,Leu14,Phe25,Tyr13]Exendin-4(1-27)-Orn-Peg3-[Leu2]Gastrin4], the “hGLP-1 R EC50 (cAMP)” value was 0.046 nM.
On to HGEGTFTSDLSKQMEEEAVRLFIEWLKDXXYGWLDF (Peg3-Peg3 linker; C-terminal amide) [[Asp28]Exendin-4(1-28)-Peg3-Peg3-[Leu4]Gastrin6], for which the “hGLP-1 R EC50 (cAMP)” value worked out at 0.061 nM.
In the case of HGEGTFTSELSKYLEEEAVRLFIEFLK[Peg3][Orn]WLDF-NH2 [[Glu9,Leu14,Phe25,Tyr13]Exendin-4(1-27)-Peg3-Orn-[Leu2]Gastrin4], the “hGLP-1 R EC50 (cAMP)” value turned out to be 0.041 nM.
Regarding HGEGTFTSDLSKYMEEEAVRLFIEWLKN[Peg3][Peg3]YGWLDF-NH2 [[Tyr13]Exendin-4(1-28)-Peg3-Peg3-[Leu4]Gastrin6], the “hGLP-1 R EC50 (cAMP)” value worked out at 0.046 nM.
With HGEGTFTSDLSKQMEEEAV[Orn]LFIEWLKN[Peg3][Peg3]YGWLDF-NH2 [[Orn20]Exendin-4(1-28)-Peg3-Peg3-[Leu4]Gastrin6], the “hGLP-1 R EC50 (cAMP)” value amounted to 0.038 nM.
As for HGEGTFTSELSKYLEEEAVRLFIEFLK[Peg3][Peg3]YGWLDF-NH2 [[Glu9,Leu14,Phe25,Tyr13]Exendin-4(1-27)-Peg3-Peg3-[Leu4]Gastrin6], the “hGLP-1 R EC50 (cAMP)” value worked out at 0.046 nM.
The same measure, in the same setting: next, HGEGTFTSDLSKYLEEEAVRLFIEFLR[Peg3]YGWLDF-NH2 [[Arg27,Leu14,Phe25,Tyr13]Exendin-4(1-27)-Peg3-[Leu4]Gastrin6]: 0.068 nM.
The same measure, in the same setting: then HGEGTFTSELSKYLEEEAVRLFIEFLK[Peg3][Orn]YGWLDF-NH2 [[Glu9,Leu14,Phe25,Tyr13]Exendin-4(1-27)-Peg3-Orn-[Leu4]Gastrin6], with 0.087 nM; and HGEGTFTSDLSKYLEEEAVRLFIEWLK[Peg3][Peg3]YGWLDF-NH2 [[Tyr13,Leu14]Exendin-4(1-27)-Peg3-Peg3-[Leu4]Gastrin6], with 0.05 nM; and HGEGTFTSELSKYLEEEAVRLFIEFLK[Peg3]WLDF-NH2 [[Glu9,Leu14,Phe25,Tyr13]Exendin-4(1-27)-Peg3-[Leu2]Gastrin4], with 0.06 nM.
As to HGEGTFTSDLSKQMEEEAVRLFIEWLKEEEEAYGWLDF (C-terminal amide) [Exendin-4(1-27)-[Leu4]Gastrin11], the “hGLP-1 R EC50 (cAMP)” value was 0.1 nM.
For HGEGTFTSELSKYLEEEAVRLFIEFLK[Peg3][Peg3]YGFLDF-NH2 [[Glu9,Leu14,Phe25,Tyr13]Exendin-4(1-27)-Peg3-Peg3-[Leu4,Phe3]Gastrin6], the “hGLP-1 R EC50 (cAMP)” value is 0.032 nM.
As to HGEGTFTSDLSRYLEEEAVRLFIEFLK[Peg3]YGWLDF-NH2 [[Arg12,Leu14,Phe25,Tyr13]Exendin-4(1-27)-Peg3-[Leu4]Gastrin6], the “hGLP-1 R EC50 (cAMP)” value is 0.079 nM.

In the next test the target is T1, human CCK-B receptor. Kind of test: cell-based or functional assay.
Consider HGEGTFTSDLSKYLEEEAVRLFIEFLK[Peg3][Peg3]YGFLDF-NH2 [[Leu14,Phe25,Tyr13]Exendin-4(1-27)-Peg3-Peg3-[Leu4,Phe3]Gastrin6], for which the “hCCK-B R EC50 (p-ERK)” value turned out to be 1200 nM.
Take HGEGTFTSELSKYLEEEAVRLFIEFLK[Peg3]YGWLDF-NH2 [[Glu9,Leu14,Phe25,Tyr13]Exendin-4(1-27)-Peg3-[Leu4]Gastrin6]: the “hCCK-B R EC50 (p-ERK)” value turned out to be 54 nM.
In the case of HGEGTFTSDLSKQLEEEAVRLFIEWLKNYGWLDX (3-(3-Pyridyl)-alanine at position 6 of the Gastrin6 moiety; C-terminal amide) [[Leu14]Exendin-4(1-28)-[Leu4,[3-(3-Pyridyl)-Ala]6]Gastrin6], the “hCCK-B R EC50 (p-ERK)” value stood at 20 nM.
Turning to HGEGTFTSELSKYLEEEAVRLFIEFLK[Orn][Peg3]WLDF-NH2 [[Glu9,Leu14,Phe25,Tyr13]Exendin-4(1-27)-Orn-Peg3-[Leu2]Gastrin4], the “hCCK-B R EC50 (p-ERK)” value was 10 nM.
As for HGEGTFTSDLSKQMEEEAVRLFIEWLKDXXYGWLDF (Peg3-Peg3 linker; C-terminal amide) [[Asp28]Exendin-4(1-28)-Peg3-Peg3-[Leu4]Gastrin6], the “hCCK-B R EC50 (p-ERK)” value stood at 3.3 nM.
The same measure, in the same setting: then HGEGTFTSELSKYLEEEAVRLFIEFLK[Peg3][Orn]WLDF-NH2 [[Glu9,Leu14,Phe25,Tyr13]Exendin-4(1-27)-Peg3-Orn-[Leu2]Gastrin4], with 51 nM.
With HGEGTFTSDLSKYMEEEAVRLFIEWLKN[Peg3][Peg3]YGWLDF-NH2 [[Tyr13]Exendin-4(1-28)-Peg3-Peg3-[Leu4]Gastrin6], the “hCCK-B R EC50 (p-ERK)” value was determined as 12 nM.
For HGEGTFTSDLSKQMEEEAV[Orn]LFIEWLKN[Peg3][Peg3]YGWLDF-NH2 [[Orn20]Exendin-4(1-28)-Peg3-Peg3-[Leu4]Gastrin6], the “hCCK-B R EC50 (p-ERK)” value came to 15 nM.
Regarding HGEGTFTSELSKYLEEEAVRLFIEFLK[Peg3][Peg3]YGWLDF-NH2 [[Glu9,Leu14,Phe25,Tyr13]Exendin-4(1-27)-Peg3-Peg3-[Leu4]Gastrin6], the “hCCK-B R EC50 (p-ERK)” value is 20 nM.
Still for that read-out and setting: then HGEGTFTSDLSKYLEEEAVRLFIEFLR[Peg3]YGWLDF-NH2 [[Arg27,Leu14,Phe25,Tyr13]Exendin-4(1-27)-Peg3-[Leu4]Gastrin6], with 18 nM; and HGEGTFTSELSKYLEEEAVRLFIEFLK[Peg3][Orn]YGWLDF-NH2 [[Glu9,Leu14,Phe25,Tyr13]Exendin-4(1-27)-Peg3-Orn-[Leu4]Gastrin6], with 8.8 nM; and HGEGTFTSDLSKYLEEEAVRLFIEWLK[Peg3][Peg3]YGWLDF-NH2 [[Tyr13,Leu14]Exendin-4(1-27)-Peg3-Peg3-[Leu4]Gastrin6], with 8.4 nM.
As to HGEGTFTSELSKYLEEEAVRLFIEFLK[Peg3]WLDF-NH2 [[Glu9,Leu14,Phe25,Tyr13]Exendin-4(1-27)-Peg3-[Leu2]Gastrin4], the “hCCK-B R EC50 (p-ERK)” value was 13 nM.
Consider HGEGTFTSDLSKQMEEEAVRLFIEWLKEEEEAYGWLDF (C-terminal amide) [Exendin-4(1-27)-[Leu4]Gastrin11], for which the “hCCK-B R EC50 (p-ERK)” value turned out to be 4.3 nM.
For HGEGTFTSELSKYLEEEAVRLFIEFLK[Peg3][Peg3]YGFLDF-NH2 [[Glu9,Leu14,Phe25,Tyr13]Exendin-4(1-27)-Peg3-Peg3-[Leu4,Phe3]Gastrin6], the “hCCK-B R EC50 (p-ERK)” value worked out at 1300 nM.
On to HGEGTFTSDLSRYLEEEAVRLFIEFLK[Peg3]YGWLDF-NH2 [[Arg12,Leu14,Phe25,Tyr13]Exendin-4(1-27)-Peg3-[Leu4]Gastrin6], for which the “hCCK-B R EC50 (p-ERK)” value is 14 nM.

The values are drawn from patent US20130143793A1 (ZEALAND PHARMA A S, published 2013).
